The source of these data is US20100260668A1 (published 2010).

The target in test [1] is recombinant human VEGF165 (human, UniProt P15692-4 27-191). The test is described as follows: cell-based or functional assay.
The target in test [2] is T1, placental growth factor (PLGF) (UniProt P49763-2 21-149, limits assumed).
T1 construct: also called P1GF
T1 sequence (looked up): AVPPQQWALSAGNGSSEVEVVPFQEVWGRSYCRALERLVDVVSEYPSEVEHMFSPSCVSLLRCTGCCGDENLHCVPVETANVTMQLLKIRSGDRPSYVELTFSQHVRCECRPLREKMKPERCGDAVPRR
The test is described as follows: ligand-receptor binding competition assay, PlGF binding to VEGFR1; N-terminal VD.

In test [3] the target is recombinant human HGF (human, UniProt P14210 32-728). In words: cell-based or functional assay.
For test [4], the target named is T2, HGF (UniProt P14210 32-728).
T2 construct: Bought reagent
The test is described as follows: Biacore SPR.

T2 sequence (P14210 32-728 limits assumed): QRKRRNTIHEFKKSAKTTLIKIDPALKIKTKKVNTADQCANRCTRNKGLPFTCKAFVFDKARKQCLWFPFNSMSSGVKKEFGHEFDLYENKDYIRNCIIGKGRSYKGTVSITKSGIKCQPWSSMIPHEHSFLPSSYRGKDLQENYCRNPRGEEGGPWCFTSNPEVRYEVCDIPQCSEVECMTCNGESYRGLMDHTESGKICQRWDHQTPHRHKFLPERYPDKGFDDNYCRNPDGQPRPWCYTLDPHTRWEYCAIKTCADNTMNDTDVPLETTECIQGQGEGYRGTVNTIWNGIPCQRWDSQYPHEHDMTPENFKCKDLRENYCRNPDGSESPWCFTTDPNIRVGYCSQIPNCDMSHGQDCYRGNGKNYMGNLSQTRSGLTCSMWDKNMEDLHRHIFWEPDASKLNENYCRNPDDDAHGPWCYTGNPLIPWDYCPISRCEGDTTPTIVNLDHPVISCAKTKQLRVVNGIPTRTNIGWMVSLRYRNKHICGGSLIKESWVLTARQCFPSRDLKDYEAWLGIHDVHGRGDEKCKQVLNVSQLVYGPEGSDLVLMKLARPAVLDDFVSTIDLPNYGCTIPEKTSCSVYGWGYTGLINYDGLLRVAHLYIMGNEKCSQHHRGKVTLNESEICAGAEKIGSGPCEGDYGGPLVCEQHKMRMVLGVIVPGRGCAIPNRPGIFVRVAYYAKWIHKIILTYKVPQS
recombinant human HGF, sequence (P14210 32-728 limits assumed): as above
recombinant human VEGF165, sequence (P15692 other isoform, or with tags, fused parts or gaps limits assumed): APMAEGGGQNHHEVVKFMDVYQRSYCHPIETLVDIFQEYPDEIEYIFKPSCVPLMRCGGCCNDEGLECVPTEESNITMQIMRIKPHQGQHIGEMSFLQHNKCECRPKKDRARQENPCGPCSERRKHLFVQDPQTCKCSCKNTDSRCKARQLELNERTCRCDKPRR

B1: DVD485 (bispecific antibody, human IgG1, kappa)
heavy: not shown
light: DIQMTQSPSSLSASVGDRVTITCRASQDVSTAVAWYQQKPGKAPKLLIYSASFLYSGVPSRFSGSGSGTDFTLTISSLQPEDFATTYYCQQSYTGTVTFGQGTKVEIKRTVAAPSVFIFPPDIQMTQSPSSLSASVGDRVTITCRASQVIRRSLAWYQQKPGKAPKLLIYAASNLASGVPSRFSGSGSGTDFTLTISSLQPEDFATYYCQQSNTSPLTFGQGTKVEIKRTVAAPSVFIFPPSDEQLKSGTASVVCLLNNFYPREAKVQWKVDNALQSGNSQESVTEQDSKDSTYSLSSTLTLSKADYEKHKVYACEVTHQGLSSPVTKSFNRGEC
For the molecule B1, the “inhibition of HUVEC proliferation (IC50)” value in test [1] was found to be 59.5 nM.

B2: DVD471 (bispecific antibody, human IgG1, kappa, L234A L235A)
heavy: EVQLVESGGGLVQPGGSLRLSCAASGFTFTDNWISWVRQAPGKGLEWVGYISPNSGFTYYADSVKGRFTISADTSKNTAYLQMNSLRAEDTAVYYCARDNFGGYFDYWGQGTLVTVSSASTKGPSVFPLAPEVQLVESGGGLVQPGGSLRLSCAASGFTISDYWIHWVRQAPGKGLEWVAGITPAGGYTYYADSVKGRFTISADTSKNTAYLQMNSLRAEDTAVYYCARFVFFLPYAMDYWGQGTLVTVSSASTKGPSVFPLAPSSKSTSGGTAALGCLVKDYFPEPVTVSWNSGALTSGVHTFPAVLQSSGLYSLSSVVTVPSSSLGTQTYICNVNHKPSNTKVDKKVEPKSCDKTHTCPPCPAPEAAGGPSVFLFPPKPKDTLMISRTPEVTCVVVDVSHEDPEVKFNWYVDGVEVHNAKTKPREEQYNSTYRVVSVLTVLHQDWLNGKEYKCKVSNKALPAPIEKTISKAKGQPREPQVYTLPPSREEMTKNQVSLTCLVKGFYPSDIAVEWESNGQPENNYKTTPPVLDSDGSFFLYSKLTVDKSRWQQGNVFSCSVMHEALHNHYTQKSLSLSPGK
light: DIQMTQSPSSLSASVGDRVTITCRASQDVSTAVAWYQQKPGKAPKLLIYSASFLYSGVPSRFSGSGSGTDFTLTISSLQPEDFATTYYCQQSYTGTVTFGQGTKVEIKRTVAAPSVFIFPPDIQMTQSPSSLSASVGDRVTITCRASQDVSTAVAWYQQKPGKAPKLLIYSASFLYSGVPSRFSGSGSGTDFTLTISSLQPEDFATYYCQQSYTTPPTFGQGTKVEIKRTVAAPSVFIFPPSDEQLKSGTASVVCLLNNFYPREAKVQWKVDNALQSGNSQESVTEQDSKDSTYSLSSTLTLSKADYEKHKVYACEVTHQGLSSPVTKSFNRGEC
Turning to B2, the “inhibition of HUVEC proliferation (IC50)” value in test [1] was determined as 6.8 nM.

B3: DVD474 (bispecific antibody, human IgG1, kappa)
heavy: not shown
light: DIQMTQSPSSLSASVGDRVTITCRASQVIRRSLAWYQQKPGKAPKLLIYAASNLASGVPSRFSGSGSGTDFTLTISSLQPEDFATYYCQQSNTSPLTFGQGTKVEIKRTVAAPSVFIFPPDIQMTQSPSSLSASVGDRVTITCRASQDVSTAVAWYQQKPGKAPKLLIYSASFLYSGVPSRFSGSGSGTDFTLTISSLQPEDFATTYYCQQSYTGTVTFGQGTKVEIKRTVAAPSVFIFPPSDEQLKSGTASVVCLLNNFYPREAKVQWKVDNALQSGNSQESVTEQDSKDSTYSLSSTLTLSKADYEKHKVYACEVTHQGLSSPVTKSFNRGEC
For B3, the “inhibition of HUVEC proliferation (IC50)” value in test [1] was determined as 0.42 nM.

B4: DVD486 (bispecific antibody, human IgG1, kappa)
heavy: not shown
light: B3 light
On to B4, for which the “inhibition of HUVEC proliferation (IC50)” value in test [1] came to 0.88 nM.

B5: DVD581 (bispecific antibody, human IgG1, kappa)
heavy: not shown
light: DIVLTQSPDSLAVSLGERVTMNCKSSQSLLNSGMRKSFLAWYQQKPGQSPKLLIYWASTRESGVPDRFTGSGSGTDFTLTISSVQAEDVAVYYCKQSYHLFTFGSGTKLEIKRTVAAPSVFIFPPDIQMTQSPSSLSASVGDRVTITCRASQDVSTAVAWYQQKPGKAPKLLIYSASFLYSGVPSRFSGSGSGTDFTLTISSLQPEDFATYYCQQSYTTPPTFGQGTKVEIKRTVAAPSVFIFPPSDEQLKSGTASVVCLLNNFYPREAKVQWKVDNALQSGNSQESVTEQDSKDSTYSLSSTLTLSKADYEKHKVYACEVTHQGLSSPVTKSFNRGEC
notes: also called DVD581H; DVD581L
For the molecule B5, the IC50 (usually the concentration that gives 50% inhibition) in test [2] is 3.5 nM.

B6: DVD470 (bispecific antibody, human IgG1, kappa)
heavy: not shown
light: DIQMTQSPSSLSASVGDRVTITCSASQDISNYLNWYQQKPGKAPKVLIYFTSSLHSGVPSRFSGSGSGTDFTLTISSLQPEDFATYYCQQYSTVPWTFGQGTKVEIKRTVAAPSVFIFPPDIQMTQSPSSLSASVGDRVTITCRASQDVSTAVAWYQQKPGKAPKLLIYSASFLYSGVPSRFSGSGSGTDFTLTISSLQPEDFATTYYCQQSYTGTVTFGQGTKVEIKRTVAAPSVFIFPPSDEQLKSGTASVVCLLNNFYPREAKVQWKVDNALQSGNSQESVTEQDSKDSTYSLSSTLTLSKADYEKHKVYACEVTHQGLSSPVTKSFNRGEC
As for B6, the “inhibition of HUVEC proliferation (IC50)” value in test [1] is 0.45 nM.

B7: DVD482 (bispecific antibody, human IgG1, kappa)
heavy: not shown
light: B6 light
In the case of B7, in test [1], the “inhibition of HUVEC proliferation (IC50)” value worked out at 0.32 nM.

B8: DVD476 (bispecific antibody, human IgG1, kappa)
heavy: not shown
light: DIQMTQSPSSLSASVGDRVTITCSASQDISNYLNWYQQKPGKAPKVLIYFTSSLHSGVPSRFSGSGSGTDFTLTISSLQPEDFATYYCQQYSTVPWTFGQGTKVEIKRTVAAPDIQMTQSPSSLSASVGDRVTITCRASQDVSTAVAWYQQKPGKAPKLLIYSASFLYSGVPSRFSGSGSGTDFTLTISSLQPEDFATTYYCQQSYTGTVTFGQGTKVEIKRTVAAPSVFIFPPSDEQLKSGTASVVCLLNNFYPREAKVQWKVDNALQSGNSQESVTEQDSKDSTYSLSSTLTLSKADYEKHKVYACEVTHQGLSSPVTKSFNRGEC
For the molecule B8, the “inhibition of HUVEC proliferation (IC50)” value in test [1] came to 0.24 nM.

B9: AB012 (antibody, human IgG1, kappa, V domains shown)
VH: QVQLVESGGGLVKPGGSLRLSCAASGFTFSDYYMSWIRQAPGKGLEWVSYISSSGSTIYYADSVKGRFTISRDNAKNSLYLQMNSLRAEDTAVYYCARDEYNSGWYVLFDYWGQGTLVTVSS
VL: DIQMTQSPSSVSASVGDRVTITCRASQGISSWLAWYQQKPGKAPNLLIYEASSLQSGVPSRFGGSGSGTDFTLTISSLQPEDFATYYCQQANGFPWTFGQGTKVEIKR
B9: in test [3], the “Inhibition Of Akt Phosphorylation (% Inhibition At 0.67 nM Ab/DVD)” value came out at 79%, the “Inhibition Of Akt Phosphorylation (% Inhibition At 6.7 nM Ab/DVD)” value was found to be 110% and the “Inhibition Of Akt Phosphorylation (% Inhibition At 67 nM Ab/DVD)” value was 106%.

B10: AB008 (antibody, human IgG1, kappa, V domains shown)
VH: QVQLVQSGAEVKKPGSSVKVSCKASGYTFTSYWLHWVRQAPGQGLEWIGYINPRNDYTEYNQNFKDKATITADESTNTAYMELSSLRSEDTAFYFCARRDITTFYWGQGTTVTVSS
VL: DIQLTQSPSSLSASVGDRVTMSCKSSQSVLYSANHKNYLAWYQQKPGKAPKLLIYWASTRESGVPSRFSGSGSGTDFTFTISSLQPEDIATYYCHQYLSSWTFGGGTKLEIKR
For B10, in test [3], the “Inhibition Of Akt Phosphorylation (% Inhibition At 6.7 nM Ab/DVD)” value is -13% and the “Inhibition Of Akt Phosphorylation (% Inhibition At 67 nM Ab/DVD)” value amounted to 8%.

B11: AB071 (antibody, human IgG1, kappa, L234A L235A, V domains shown)
VH: EVQLVESGGGLVQPGGSLRLSCAASGFTINASWIHWVRQAPGKGLEWVGAIYPYSGYTNYADSVKGRFTISADTSKNTAYLQMNSLRAEDTAVYYCARWGHSTSPWAMDYWGQGTLVTVSS
VL: DIQMTQSPSSLSASVGDRVTITCRASQVIRRSLAWYQQKPGKAPKLLIYAASNLASGVPSRFSGSGSGTDFTLTISSLQPEDFATYYCQQSNTSPLTFGQGTKVEIKR
For the molecule B11, the “inhibition of HUVEC proliferation (IC50)” value in test [1] is 2.5 nM.

B12: DVD034 (bispecific antibody, human IgG1, kappa)
heavy: not shown
light: DIQMTQSPSSVSASVGDRVTITCRASQGISSWLAWYQQKPGKAPNLLIYEASSLQSGVPSRFGGSGSGTDFTLTISSLQPEDFATYYCQQANGFPWTFGQGTKVEIKRTVAAPDVVMTQSPLSLPVTPGEPASISCRSSQSLLHSNGFNYVDWYLQKPGQSPHLLIYFGSYRASGVPDRFSGSGSGTDFTLKISRVEAEDVGVYYCMQALQTPPWTFGQGTKVEIRRTVAAPSVFIFPPSDEQLKSGTASVVCLLNNFYPREAKVQWKVDNALQSGNSQESVTEQDSKDSTYSLSSTLTLSKADYEKHKVYACEVTHQGLSSPVTKSFNRGEC
notes: N-terminal VD HGF, C-terminal VD RON; also called DVD034H; DVD034L
As for B12, in test [4], the Kd (as a rule, a measure of binding affinity in units of concentration) is 0.0215 nM; the koff – broadly, a measure of how fast the partners let go of each other – was found to be 6.55e-05 s⁻¹; the kon – broadly, the second-order rate constant of association – came to 3.05e+06 M⁻¹ s⁻¹.

B13: DVD575 (bispecific antibody, human IgG1, kappa)
heavy: not shown
light: DIVLTQSPDSLAVSLGERVTMNCKSSQSLLNSGMRKSFLAWYQQKPGQSPKLLIYWASTRESGVPDRFTGSGSGTDFTLTISSVQAEDVAVYYCKQSYHLFTFGSGTKLEIKRTVAAPDIQMTQSPSSLSASVGDRVTITCRASQVIRRSLAWYQQKPGKAPKLLIYAASNLASGVPSRFSGSGSGTDFTLTISSLQPEDFATYYCQQSNTSPLTFGQGTKVEIKRTVAAPSVFIFPPSDEQLKSGTASVVCLLNNFYPREAKVQWKVDNALQSGNSQESVTEQDSKDSTYSLSSTLTLSKADYEKHKVYACEVTHQGLSSPVTKSFNRGEC
notes: DVD-Ig, N-term PlGF (AB047) / C-term VEGF (AB071); also called DVD575H; DVD575L
Molecule B13 had an IC50 in test [2] of 2.9 nM.

B14: DVD573 (bispecific antibody, human IgG1, kappa)
heavy: not shown
light: DIVLTQSPDSLAVSLGERVTMNCKSSQSLLNSGMRKSFLAWYQQKPGQSPKLLIYWASTRESGVPDRFTGSGSGTDFTLTISSVQAEDVAVYYCKQSYHLFTFGSGTKLEIKRTVAAPDIQMTQSPSSLSASVGDRVTITCRASQDVSTAVAWYQQKPGKAPKLLIYSASFLYSGVPSRFSGSGSGTDFTLTISSLQPEDFATYYCQQSYTTPPTFGQGTKVEIKRTVAAPSVFIFPPSDEQLKSGTASVVCLLNNFYPREAKVQWKVDNALQSGNSQESVTEQDSKDSTYSLSSTLTLSKADYEKHKVYACEVTHQGLSSPVTKSFNRGEC
notes: also called DVD573H; DVD573L
Regarding B14, in test [2], the IC50 amounted to 2.59 nM.

B15: DVD045 (bispecific antibody, human IgG1, kappa)
heavy: not shown
light: DIQMTQSPSSLSASVGDRVTITCSASQDISNYLNWYQQKPGKAPKVLIYFTSSLHSGVPSRFSGSGSGTDFTLTISSLQPEDFATYYCQQYSTVPWTFGQGTKVEIKRTVAAPDIQMTQSPSSVSASVGDRVTITCRASQGISSWLAWYQQKPGKAPNLLIYEASSLQSGVPSRFGGSGSGTDFTLTISSLQPEDFATYYCQQANGFPWTFGQGTKVEIKRTVAAPSVFIFPPSDEQLKSGTASVVCLLNNFYPREAKVQWKVDNALQSGNSQESVTEQDSKDSTYSLSSTLTLSKADYEKHKVYACEVTHQGLSSPVTKSFNRGEC
Consider B15, for which, in test [3], the “Inhibition Of Akt Phosphorylation (% Inhibition At 0.67 nM Ab/DVD)” value was -15%, the “Inhibition Of Akt Phosphorylation (% Inhibition At 6.7 nM Ab/DVD)” value was -2% and the “Inhibition Of Akt Phosphorylation (% Inhibition At 67 nM Ab/DVD)” value stood at 64%.
